Measurements published in US20050164925A1 (JOSEPH ANTHONY JAKUBOWSKI AND THURMAN DWIGHT MC KINNEY, published 2005).
Several values for one entry are separate records, joined by “and”; a condition that tells them apart may be missing. Equal values may be shown once. Where no end group is shown, it is not given here.

T1: human GLP-1 receptor (human), P43220
T1 chain: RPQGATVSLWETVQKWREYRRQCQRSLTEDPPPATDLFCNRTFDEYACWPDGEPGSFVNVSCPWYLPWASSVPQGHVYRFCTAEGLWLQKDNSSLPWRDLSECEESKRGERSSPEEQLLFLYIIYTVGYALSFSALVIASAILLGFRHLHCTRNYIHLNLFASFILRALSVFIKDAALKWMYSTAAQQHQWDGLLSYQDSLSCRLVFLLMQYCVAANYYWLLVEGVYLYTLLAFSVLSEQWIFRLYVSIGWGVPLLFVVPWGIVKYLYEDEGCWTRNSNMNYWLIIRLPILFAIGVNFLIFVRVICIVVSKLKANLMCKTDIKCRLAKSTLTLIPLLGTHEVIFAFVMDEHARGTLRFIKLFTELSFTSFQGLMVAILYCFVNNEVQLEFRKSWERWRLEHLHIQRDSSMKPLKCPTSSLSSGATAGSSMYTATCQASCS


What was measured:
human GLP-1 receptor [1] = biological target: T2, human GLP-1 receptor (Homo sapiens, UniProt P43220); assay: In vitro potency assay (CRE-BLAM reporter, GLP-1 receptor signaling); type: cell-based; settings: in vitro potency relative to Val^8-GLP-1(7-37)OH
T2 construct: expressed in transfected cells; host or cells: HEK-293 Aurora CRE-BLAM cells
Description: The extent of the induction of cAMP levels can then be measured using a cAMP response element which drives the expression of a reporter gene such as luciferase or beta lactamase.
These HEK-293 cells have stably integrated a DNA vector having a cAMP response element (CRE) driving expression of the β-lactamase (BLAM) gene.
The day after seeding, the medium is replaced with plasma free medium.

[2] = biological target: T1, human GLP-1 receptor (human), P43220; assay: cell-based or functional assay
human GLP-1 receptor [3] = biological target: human GLP-1 receptor (human, UniProt P43220 24-463); assay: cell-based or functional assay

Molecule | EC50 Relative to Val^8-GLP-1(7-37)OH (relative to Val^8-GLP-1(7-37)OH) [2] | also measured
Val^8-Glu^22-GLP-1(7-37)OH |  | potency higher than Val^8-GLP-1(7-37)OH (human GLP-1 receptor [1]): approximately 3 fold
Exendin-4 |  | potency higher than Val^8-GLP-1(7-37)OH (human GLP-1 receptor [1]): approximately 5 fold
HVEGTFTSDVSSYLEEQAVKEFIAWLVKGRG-OH [Val^8-Glu^22-Val^25-GLP-1(7-37)OH] | 4.7 and 2.9 | 
HVEGTFTSDVSKYLEEQAAKEFIAWLVKGRG-OH [Val^8-Lys^18-Glu^22-GLP-1(7-37)OH] | 2.5 | 
HVEGTFTSDVSSYLEEQALKEFIAWLVKGRG-OH [Val^8-Glu^22-Leu^25-GLP-1(7-37)OH] | 2.8 | 
HVEGTFTSDISSYLEEQAAKEFIAWLVKGRG-OH [Val^8-Ile^16-Glu^22-GLP-1(7-37)OH] | 3.3 | 
HVEGTFTSDVSSYLEEQAAKEFIAWLIKGRG-OH [Val^8-Glu^22-Ile^33-GLP-1(7-37)OH] | 4.7 and 3.8 and 3.4 | 
HVEGTFTSDVSSYLEGQAAKEFIEWLVKGRG-OH [Val^8-Glu^30-GLP-1(7-37)OH] | 0.7 | 
HVEGTFTSDVSSYLEGQALKEFIAWLVKGRG-OH [Val^8-Leu^25-GLP-1(7-37)OH] | 0.5 | 
HVEGTFTSDVSSYLEEQAAKAFIAWLVKGRG-OH [Val^8-Glu^22-Ala^27-GLP-1(7-37)OH] | 2.2 | 
HVEGTFTSDVSSYLEEQAVKEFIAWLIKGRG-OH [Val^8-Glu^22-Val^25-Ile^33-GLP-1(7-37)OH] | 4.9 and 5.8 and 6.7 | 
HVEGTYTSDVSSYLEGQAAKEFIAWLVKGX (C-terminal amide (Xaa at position 37 is -NH2)) [Val^8-Tyr^12-GLP-1(7-36)NH2] |  | EC50 Relative to Val^8-GLP-1(7-37)OH (human GLP-1 receptor [3]): 1.1 relative to Val^8-GLP-1(7-37)OH
HVEGTFTSDFSSYLEEQAAKEFIAWLVKGRG-OH [Val^8-Phe^16-Glu^22-GLP-1(7-37)OH] | 2.3 | 
HVEGTFTSDVSSYLEEQAAKEFIAWLVKGRH-OH [Val^8-Glu^22-His^37-GLP-1(7-37)OH] | 4.7 | 
HVDGIFTSDYSSYLEEQAAKEFIAWLVKGRG-OH [Val^8-Asp^9-Ile^11-Tyr^16-Glu^22-GLP-1(7-37)OH] | 4.3 | 
HVEGTFTSDVSIYLEEQAAKEFIAWLVKGRG-OH [Val^8-Ile^18-Glu^22-GLP-1(7-37)OH] | 4 | 
HVEGTFTSDLSSYLEEQAAKEFIAWLVKGRG-OH [Val^8-Leu^16-Glu^22-GLP-1(7-37)OH] | 4.3 | 
HVEGTFTSDLSSYLEGQAAKEFIAWLVKGRG-OH [Val^8-Leu^16-GLP-1(7-37)OH] | 1.1 | 

More lines, main results first:

EC50 Relative to Val^8-GLP-1(7-37)OH (relative to Val^8-GLP-1(7-37)OH) [2] | Molecule | also measured
2.8 | HVEGTFTSDYSSFLEGQAAKEFIAWLVKGRG-OH [Val^8-Tyr^16-Phe^19-GLP-1(7-37)OH] | 
3.6 and 3.8 | HVEGTFTSDYSSYLEEQAAKEFIAWLVKGRG-OH [Val^8-Tyr^16-Glu^22-GLP-1(7-37)OH] | 
5.1 and 5.9 | HVEGTFTSDVSYYLEEQAAKEFIAWLVKGRG-OH [Val^8-Tyr^18-Glu^22-GLP-1(7-37)OH] | 
2.5 | HVEGTFTSDYSSYLEGQAAKEFIAWLVKGRG-OH [Val^8-Tyr^16-GLP-1(7-37)OH] | 
1.5 | HVEGTYTSDYSSYLEGQAAKEFIAWLVKGRG-OH [Val^8-Tyr^12-Tyr^16-GLP-1(7-37)OH] | 
5 | HVEGTFTSDWSSYLEEQAVKEFIAWLIKGRG-OH [Val^8-Trp^16-Glu^22-Val^25-Ile^33-GLP-1(7-37)OH] | 
4.9 and 4.6 | HVEGTFTSDWSSYLEEQAAKEFIAWLVKGRG-OH [Val^8-Trp^16-Glu^22-GLP-1(7-37)OH] | 
3.2 | HVEGTFTSDVSSWLEEQAAKEFIAWLVKGRG-OH [Val^8-Trp^19-Glu^22-GLP-1(7-37)OH] | 
1.5 | HVEGTFTSDVSSFLEEQAAKEFIAWLVKGRG-OH [Val^8-Phe^19-Glu^22-GLP-1(7-37)OH] | 
2.7 | HVEGTFTSDVSSYFEEQAAKEFIAWLVKGRG-OH [Val^8-Phe^20-Glu^22-GLP-1(7-37)OH] | 
1.7 | HVEGTWTSDVSSYLEEQAAKEFIAWLVKGRG-OH [Val^8-Trp^12-Glu^22-GLP-1(7-37)OH] | 
4.1 | HVEGTFTSDWSSYLEEQAAKEFIAWLIKGRG-OH [Val^8-Trp^16-Glu^22-Ile^33-GLP-1(7-37)OH] | 
3.2 and 6.6 | HVEGTFTSDVSWYLEEQAAKEFIAWLVKGRG-OH [Val^8-Trp^18-Glu^22-GLP-1(7-37)OH] | 
2.7 | HVEGTYTSDVSSYLEEQAAKEFIAWLVKGRG-OH [Val^8-Tyr^12-Glu^22-GLP-1(7-37)OH] | 
3.5 | HVEGTFTSDYSSWLEEQAAKEFIAWLVKGRG-OH [Val^8-Tyr^16-Trp^19-Glu^22-GLP-1(7-37)OH] | 
4.4 | HVEGTFTSDWSSYLEEQAVKEFIAWLVKGRG-OH [Val^8-Trp^16-Glu^22-Val^25-GLP-1(7-37)OH] | 
